Test results published in patent US20170002055A1, “Novel peptides and combination of peptides for use in immunotherapy against ovarian cancer and other cancers” (immatics biotechnologies GmbH, priority 2015, published 2017).

molecular target: HLA-A*02:01 (Homo sapiens, UniProt P04439, D140Y/D185E/D98H/E176V/E277Q/G131W/G231S/I119V/I121R/I166T/I218V/L300P/L318F/N151K/N90K/P208A/P217A/Q86G/Q94H/R138H/R169H/T345S); assay: MHC binding assay (UV-ligand exchange, β2m ELISA, peptide exchange yield); conditions: MHC class I binding score; binding to HLA-A*02:01 ranged by peptide exchange yield (UV-ligand exchange, β2m ELISA)
Procedure, shortened: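 Peptide–HLA-A*02:01 complexes were formed by UV-mediated exchange of a UV-cleavable ligand for the test peptide. Exchange yield was measured by capturing complexes on streptavidin, detecting with HRP anti-β2m antibody (1 h, 37°C) and reading TMB absorbance at 450 nm.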

Substance	Peptide exchange
214 (FLLDLDPLLL; listed as Homo sapiens) [compound 214]	“+++” (≧50 = +++)
216 (NLWEDPYYL; listed as Homo sapiens) [compound 216]	“+++” (≧50 = +++)
217 (ALIHPVSTV; listed as Homo sapiens) [compound 217]	“++” (≧20% = ++)
218 (SALEELVNV; listed as Homo sapiens) [compound 218]	“++” (≧20% = ++)
220 (LLQKFVPEI; listed as Homo sapiens) [compound 220]	“++” (≧20% = ++)
221 (ALYEEGLLL; listed as Homo sapiens) [compound 221]	“++” (≧20% = ++)
222 (NLIENVQRL; listed as Homo sapiens) [compound 222]	“++” (≧20% = ++)
228 (AMQEYIAVV; listed as Homo sapiens) [compound 228]	“++” (≧20% = ++)
229 (RLPGPLGTV; listed as Homo sapiens) [compound 229]	“++” (≧20% = ++)
232 (ALLEAQDVELYL; listed as Homo sapiens) [compound 232]	“++” (≧20% = ++)
233 (VLSETLYEL; listed as Homo sapiens) [compound 233]	“++” (≧20% = ++)
235 (YLNDLHEVLL; listed as Homo sapiens) [compound 235]	“++++” (≧75% = ++++)
236 (GLLEAKVSL; listed as Homo sapiens) [compound 236]	“+++” (≧50 = +++)
237 (ALLEASGTLLL; listed as Homo sapiens) [compound 237]	“++++” (≧75% = ++++)
239 (AAFAGKLLSV; listed as Homo sapiens) [compound 239]	“+++” (≧50 = +++)
245 (SMIDDLLGV; listed as Homo sapiens) [compound 245]	“+++” (≧50 = +++)
246 (LLWEVVSQL; listed as Homo sapiens) [compound 246]	“+++” (≧50 = +++)
250 (ALSEEGLLVYL; listed as Homo sapiens) [compound 250]	“+++” (≧50 = +++)
251 (ALYTGFSILV; listed as Homo sapiens) [compound 251]	“++” (≧20% = ++)
254 (TLLAFIMEL; listed as Homo sapiens) [compound 254]	“+++” (≧50 = +++)
256 (FLPPEHTIVYI; listed as Homo sapiens) [compound 256]	“+++” (≧50 = +++)
257 (SIFSAFLSV; listed as Homo sapiens) [compound 257]	“+++” (≧50 = +++)
258 (ELAERVPAI; listed as Homo sapiens) [compound 258]	“++” (≧20% = ++)

Substance	Peptide exchange
261 (YVLEFLEEI; listed as Homo sapiens) [compound 261]	“++” (≧20% = ++)
263 (LLVSNLDFGV; listed as Homo sapiens) [compound 263]	“+++” (≧50 = +++)
264 (SLQEQLHSV; listed as Homo sapiens) [compound 264]	“+++” (≧50 = +++)
269 (RVLEVGALQAV; listed as Homo sapiens) [compound 269]	“++” (≧20% = ++)
271 (LVYPLELYPA; listed as Homo sapiens) [compound 271]	“+++” (≧50 = +++)
272 (ALGNTVPAV; listed as Homo sapiens) [compound 272]	“+++” (≧50 = +++)
273 (NLFQSVREV; listed as Homo sapiens) [compound 273]	“++” (≧20% = ++)
274 (SLLFSLFEA; listed as Homo sapiens) [compound 274]	“++” (≧20% = ++)
276 (ALFTFSPLTV; listed as Homo sapiens) [compound 276]	“+++” (≧50 = +++)
278 (QLLDVVLTI; listed as Homo sapiens) [compound 278]	“++” (≧20% = ++)
279 (ALWGGTQPLL; listed as Homo sapiens) [compound 279]	“++” (≧20% = ++)
280 (VLPDPEVLEAV; listed as Homo sapiens) [compound 280]	“+++” (≧50 = +++)
281 (ILRESTEEL; listed as Homo sapiens) [compound 281]	“+++” (≧50 = +++)
282 (LLADVVPTT; listed as Homo sapiens) [compound 282]	“+++” (≧50 = +++)
284 (ILLSQTTGV; listed as Homo sapiens) [compound 284]	“+++” (≧50 = +++)
285 (QLLHVGVTV; listed as Homo sapiens) [compound 285]	“+++” (≧50 = +++)
287 (FLNEFFLNV; listed as Homo sapiens) [compound 287]	“+++” (≧50 = +++)
288 (NLINEINGV; listed as Homo sapiens) [compound 288]	“+++” (≧50 = +++)
295 (VLDRESPNV; listed as Homo sapiens) [compound 295]	“+++” (≧50 = +++)
297 (VLADIELAQA; listed as Homo sapiens) [compound 297]	“+++” (≧50 = +++)
299 (YLLETSGNL; listed as Homo sapiens) [compound 299]	“+++” (≧50 = +++)
301 (FLVEDLVDSL; listed as Homo sapiens) [compound 301]	“+++” (≧50 = +++)

Now from value to substance:

Peptide exchange	Substance
“+++” (≧50 = +++)	219 (KLSDIGITV; listed as Homo sapiens) [compound 219]
“+++” (≧50 = +++)	223 (ALLENIALYL; listed as Homo sapiens) [compound 223]
“+++” (≧50 = +++)	224 (TLIDAQWVL; listed as Homo sapiens) [compound 224]
“+++” (≧50 = +++)	225 (SLLKVLPAL; listed as Homo sapiens) [compound 225]
“++” (≧20% = ++)	226 (MLYVVPIYL; listed as Homo sapiens) [compound 226]
“++” (≧20% = ++)	227 (ALMNTLLYL; listed as Homo sapiens) [compound 227]
“+” (≧10% = +)	230 (ILVDWLVEV; listed as Homo sapiens) [compound 230]
“++” (≧20% = ++)	231 (FLSPQQPPLLL; listed as Homo sapiens) [compound 231]
“++” (≧20% = ++)	234 (ALMEDTGRQML; listed as Homo sapiens) [compound 234]
“+++” (≧50 = +++)	238 (YLISFQTHI; listed as Homo sapiens) [compound 238]
“+++” (≧50 = +++)	240 (ILLEQAFYL; listed as Homo sapiens) [compound 240]
“+++” (≧50 = +++)	241 (SLVEVNPAYSV; listed as Homo sapiens) [compound 241]
“+++” (≧50 = +++)	243 (LLLNELPSV; listed as Homo sapiens) [compound 243]
“+++” (≧50 = +++)	244 (SLFGGTEITI; listed as Homo sapiens) [compound 244]
“+++” (≧50 = +++)	248 (FLFPNQYVDV; listed as Homo sapiens) [compound 248]
“+++” (≧50 = +++)	249 (LLDGFLVNV; listed as Homo sapiens) [compound 249]
“+++” (≧50 = +++)	252 (LLIGTDVSL; listed as Homo sapiens) [compound 252]

Peptide exchange	Substance
“++” (≧20% = ++)	253 (GLDAATATV; listed as Homo sapiens) [compound 253]
“+++” (≧50 = +++)	255 (VLASYNLTV; listed as Homo sapiens) [compound 255]
“+++” (≧50 = +++)	262 (LLWGDLIWL; listed as Homo sapiens) [compound 262]
“++” (≧20% = ++)	265 (LLFGGTKTV; listed as Homo sapiens) [compound 265]
“+++” (≧50 = +++)	266 (KITDTLIHL; listed as Homo sapiens) [compound 266]
“+++” (≧50 = +++)	267 (ALQDFLLSV; listed as Homo sapiens) [compound 267]
“++” (≧20% = ++)	270 (LLLDEEGTFSL; listed as Homo sapiens) [compound 270]
“++” (≧20% = ++)	275 (YLVYILNEL; listed as Homo sapiens) [compound 275]
“++” (≧20% = ++)	277 (LLPPLESLATV; listed as Homo sapiens) [compound 277]
“+++” (≧50 = +++)	286 (YLFPGIPEL; listed as Homo sapiens) [compound 286]
“++++” (≧75% = ++++)	289 (VLLEIEDLQV; listed as Homo sapiens) [compound 289]
“+++” (≧50 = +++)	296 (FMEGAIIYV; listed as Homo sapiens) [compound 296]
“+++” (≧50 = +++)	298 (VMITKLVEV; listed as Homo sapiens) [compound 298]
“+++” (≧50 = +++)	300 (ALLGQTFSL; listed as Homo sapiens) [compound 300]
“+++” (≧50 = +++)	302 (ALLQEGEVYSA; listed as Homo sapiens) [compound 302]
“++++” (≧75% = ++++)	303 (AILPQLFMV; listed as Homo sapiens) [compound 303]
